{"source": "paper PMC8121815", "about": "(Nature Communications, 2021)", "molecules": {"B1": {"name": "hTOM70 ΔN2 (106-608), co-expressed with orf9b (domain or fragment, human, UniProt O94826 106-608, looked up)", "chain": "LDMNSLDRAQAAKNKGNKYFKAGKYEQAIQCYTEAISLCPTEKNVDLSTFYQNRAAAFEQLQKWKEVAQDCTKAVELNPKYVKALFRRAKAHEKLDNKKECLEDVTAVCILEGFQNQQSMLLADKVLKLLGKEKAKEKYKNREPLMPSPQFIKSYFSSFTDDIISQPMLKGEKSDEDKDKEGEALEVKENSGYLKAKQYMEEENYDKIISECSKEIDAEGKYMAEALLLRATFYLLIGNANAAKPDLDKVISLKEANVKLRANALIKRGSMYMQQQQPLLSTQDFNMAADIDPQNADVYHHRGQLKILLDQVEEAVADFDECIRLRPESALAQAQKCFALYRQAYTGNNSSQIQAAMKGFEEVIKKFPRCAEGYALYAQALTDQQQFGKADEMYDKCIDLEPDNATTYVHKGLLQLQWKQDLDRGLELISKAIEIDNKCDFAYETMGTIEVQRGNMEKAIDMFNKAINLAKSEMEMAHLYSLCDAAHAQTEVAKKYGLKPPTL", "notes": "also called TOM70 (106-608); cytosolic domain of hTOM70"}}, "key": {"[1]": {"target": "T1, unliganded hTOM70 (cytoplasmic segment of human TOM70) (human)", "T1 sequence (O94826 whole entry, looked up)": "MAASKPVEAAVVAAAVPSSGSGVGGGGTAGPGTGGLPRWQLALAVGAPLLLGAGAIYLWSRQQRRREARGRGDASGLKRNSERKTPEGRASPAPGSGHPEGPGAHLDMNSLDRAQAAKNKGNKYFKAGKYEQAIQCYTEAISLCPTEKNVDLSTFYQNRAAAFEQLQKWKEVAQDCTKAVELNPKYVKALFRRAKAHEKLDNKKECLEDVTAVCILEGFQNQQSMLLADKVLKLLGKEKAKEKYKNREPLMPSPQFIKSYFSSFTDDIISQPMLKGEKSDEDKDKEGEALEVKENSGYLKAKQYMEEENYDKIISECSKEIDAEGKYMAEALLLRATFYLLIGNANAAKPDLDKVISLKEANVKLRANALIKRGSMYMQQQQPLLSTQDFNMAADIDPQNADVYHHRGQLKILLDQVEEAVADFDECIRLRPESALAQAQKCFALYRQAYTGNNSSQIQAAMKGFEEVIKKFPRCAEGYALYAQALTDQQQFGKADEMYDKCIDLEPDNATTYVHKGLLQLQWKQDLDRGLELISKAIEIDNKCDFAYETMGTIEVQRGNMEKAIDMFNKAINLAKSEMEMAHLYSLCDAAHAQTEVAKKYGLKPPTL", "assay": "ITC"}, "hTOM70/N-peptide complex": {"target": "hTOM70/N-peptide complex (Homo sapiens, UniProt O94826)", "type": "binding"}, "[2]": {"target": "T2, SARS-CoV-2 orf9b with an N-terminal His-tag, co-expressed with hTOM70 (SARS-CoV-2, UniProt P0DTD2 1-97)", "T2 construct": "also called intact orf9b", "T2 sequence (P0DTD2 whole entry)": "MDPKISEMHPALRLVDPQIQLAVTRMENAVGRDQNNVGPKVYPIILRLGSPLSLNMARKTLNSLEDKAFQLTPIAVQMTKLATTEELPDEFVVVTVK", "assay": "SEC + AUC", "settings": "both partners purified"}}}
{"molecule": "C-peptide (SARS-CoV-2 orf9b core sequence 44-70) (from UniProt P0DTD2 44-70)", "values": [{"measurement": "dH", "setting": "[1]", "value": 11.1, "unit": "kJ/mol"}]}
{"molecule": "CC[C@H](C)[C@H](N)C(=O)N[C@H](C(=O)N[C@@H](CC(C)C)C(=O)N[C@@H](CCCNC(=N)N)C(=O)N[C@@H](CC(C)C)C(=O)NCC(=O)N[C@@H](CO)C(=O)N1CCC[C@H]1C(=O)N[C@@H](CC(C)C)C(=O)N[C@@H](CO)C(=O)N[C@@H](CC(C)C)C(=O)N[C@@H](CC(N)=O)C(=O)N[C@@H](CCSC)C(=O)N[C@@H](C)C(=O)N[C@@H](CCCNC(=N)N)C(=O)N[C@@H](CCCCN)C(=O)N[C@H](C(=O)N[C@@H](CC(C)C)C(=O)N[C@@H](CC(N)=O)C(=O)N[C@@H](CO)C(=O)N[C@@H](CC(C)C)C(=O)N[C@@H](CCC(=O)O)C(=O)N[C@@H](CC(=O)O)C(=O)N[C@@H](CCCCN)C(=O)N[C@@H](C)C(=O)N[C@@H](Cc1ccccc1)C(=O)N[C@@H](CCC(N)=O)C(=O)O)[C@@H](C)O)[C@@H](C)CC", "note": "[C-peptide]", "values": [{"measurement": "ΔH, enthalpy variation", "setting": "hTOM70/N-peptide complex", "value": "4.1 ± 0.1", "unit": "kJ/mol"}, {"measurement": "ΔS, entropy variation", "setting": "hTOM70/N-peptide complex", "value": 32.5}]}
{"molecule": "B1", "values": [{"measurement": "stoichiometry N", "setting": "[2]", "value": 1}]}
